Laboratory results published in patent US20210238279A1 (Johns Hopkins, published 2021).

How the values were obtained:
human ZnT8-His [1] = target: T1, human ZnT8-His (human, UniProt Q8IWU4-2 1-320, limits assumed); assay: ELISA on ZnT8-His on Ni-NTA plate, native against unfolded with 2% SDS
T1 construct: Over-expressed in HEK293 cells, solubilized with DDM and immobilized on Ni-NTA plates (native or unfolded with 2% SDS), or SDS-denatured on immunoblots; also called human ZnT8 with C-terminal poly-histidine tag; not shown: C-terminal poly-histidine tag
T1 sequence (looked up): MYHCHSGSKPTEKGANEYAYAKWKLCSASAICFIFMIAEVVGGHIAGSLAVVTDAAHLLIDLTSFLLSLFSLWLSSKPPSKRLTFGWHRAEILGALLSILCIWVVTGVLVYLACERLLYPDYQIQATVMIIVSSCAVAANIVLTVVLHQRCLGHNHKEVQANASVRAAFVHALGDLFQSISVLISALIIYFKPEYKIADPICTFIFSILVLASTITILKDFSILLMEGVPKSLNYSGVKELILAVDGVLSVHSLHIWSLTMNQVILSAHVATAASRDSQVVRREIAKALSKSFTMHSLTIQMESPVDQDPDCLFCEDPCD
From the text: FIG. 4A-4C. mAb binding stabilized ZnT8 folding (FIG. 4A) mAb binding to folded or denatured ZnT8. ZnT8-His in detergent micelles was immobilized to a Ni-NTA plate in replication w/o SDS denaturation. ELISAs against denatured (triangle) and non-denatured ZnT8 (circle) were compared for mAb20 and mAb39 as indicated. CTDA and MSA were used as a positive and negative control, respectively. Error bars are standard deviations. (FIG. 4B) mAb binding to folded ZnT8-GFP in detergent micelles. mAb20 or mAb39 was mixed with ZnT8-GFP and then the binding mixture was analyzed by size-exclusion HPLC with GFP-fluorescence detection. […] (FIG. 4C) Protection of ZnT8 unfolding. Aliquots of ZnT8 in detergent micelles were incubated with Fab20 (red), Fab39 (magenta), or Fab20+Fab39 (brown). […] After a designated time of heat denaturation as indicated, protein aggregates were removed by ultracentrifugation, and the amount of remaining ZnT8 in the supernatant was detected by mAb20 immunoblotting (upper panel). […]
Folding dependence. To compare the difference in mAb bindings to native and denatured ZnT8, we used 2% SDS to unfold immobilized ZnT8-His on a Ni-NTA plate, and then compared denatured ELISA readouts with non-denatured replicates. The native readout of mAb20 was about two-fold higher than the denatured readout (FIG. 4A), indicating a moderate selectivity for folded conformation over unfolded ZnT8. […]

mouse ZnT8-His = target: T2, mouse ZnT8-His (mouse, UniProt Q8BGG0 1-367, limits assumed); assay: ELISA titration on ZnT8-His immobilized on Ni-NTA plate; reference is human ZnT8-His; fold ratio of mouse to human apparent affinity; Ni-NTA plate titration
T2 construct: Over-expressed in HEK293 cells, solubilized with DDM and immobilized on Ni-NTA plates, or SDS-denatured on immunoblots; not shown: C-terminal poly-histidine tag
T2 sequence (looked up): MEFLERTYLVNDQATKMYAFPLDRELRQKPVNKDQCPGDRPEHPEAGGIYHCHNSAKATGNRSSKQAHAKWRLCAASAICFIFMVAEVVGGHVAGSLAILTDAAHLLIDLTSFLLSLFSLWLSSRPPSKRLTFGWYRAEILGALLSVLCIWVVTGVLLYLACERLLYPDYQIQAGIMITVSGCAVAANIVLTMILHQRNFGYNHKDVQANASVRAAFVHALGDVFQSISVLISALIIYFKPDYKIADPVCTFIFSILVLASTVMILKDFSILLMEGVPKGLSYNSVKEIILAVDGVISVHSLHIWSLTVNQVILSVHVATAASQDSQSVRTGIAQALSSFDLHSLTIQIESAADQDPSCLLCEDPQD
From the text: (§1) FIG. 7A-7D. mAb binding specificities (FIG. 7A) mAb binding to ZnT8-His immobilized to Ni-NTA plate. Bound mAb20 (red) or mAb39 (magenta) was detected by an HRP-conjugated secondary antibody. Solid lines are least-squares fits of binding datapoints to a one-component binding process. Error bars are standard errors (n=8). (FIG. 7B) SDS-denatured mouse ZnT8-His (labeled as M) and human ZnT8-His (labeled as H) on immunoblots were detected by mAb20 or mAb39 as indicated. […] (FIG. 7C) Detection of endogenous human ZnT8 in EndoC-βH cells by mAb20 or […] immunoblotting. An equal amount of EndoC-βH lysate (5 μg total protein) was loaded to each lane. (FIG. 7D) Immunoblotting of HEK lysates with or with over-expression of a ZnT homolog as indicated. An approximately equal amount of total lysate protein (5 μg) was located to each lane, probed by either mAb20, mAb39, or anti-FALG antibody as indicated. FIG. 8. HTRF response to human ZnT8, mouse ZnT8 and human ZnT3.
(§2) Binding specificities. […] Of note, the epitope-masking effect of ZnT8 immobilization weakened the apparent binding affinities of both mAbs as compared to the affinities determined by flow-cytometry, and such a weakening effect was more pronounced for mAb39, probably due to a closer proximity of the mAb39 epitope to the C-terminal His-tag. Next, we compared the immunoreactivities of mAbs to denatured ZnT8.

human ZnT8-His [2] = target: T1, human ZnT8-His; assay: ELISA, ZnT8-His on Ni-NTA plate, HRP-conjugated secondary antibody; curve taken as human by paragraph 166
From the text: as §1, §2

B1: mAb20 (antibody, V domains shown)
VH: QIQLVQSGPELKKPGETVKISCKASGYIFTNYPMHWVKQAPGKGLKWMGWINTYSGVPTHADDFKGRFAFSLETSANSAFLQINNLKNEDTATYFCTRSRITPTGGYAMDYWGQGTSVTVSS
VL: DVVMTQTPLSLPVSLGDQASISCRSSQSLVHSNGNTYLHWYLQKPGQSPNLLISKVSNRFSGVPERFSGSGSGTDFTLKISRVEAEDLGVYFCSQNTHVPWTFGGGTKLEIKR
notes: Mouse hybridoma mAb purified on protein A/G; In some assays it was labelled with Alexa Fluor 488 or terbium cryptate; also called monoclonal antibody mAb20; anti-ZnT8 mAb20
ratio of native to SDS-denatured ELISA readout (human ZnT8-His [1]): ~2 fold
fold difference in apparent binding affinity, mouse against human ZnT8 (mouse ZnT8-His): 567 fold
EC50 (read off the curve) (human ZnT8-His [2]): ~3 nM
